B1: Ac-225-macropa-Pelgifatamab (CAR 0.8) (antibody, V domains shown)
VH: QVQLVESGGGVVQPGRSLRLSCAASGFAFSRYGMHWVRQAPGKGLEWVAVIWYDGSNKYYADSVKGRFTISRDNSKNTQYLQMNSLRAEDTAVYYCARGGDFLYYYYYGMDVWGQGTTVTVSS
VL: DIQMTQSPSSLSASVGDRVTITCRASQGISNYLAWYQQKTGKVPKFLIYEASTLQSGVPSRFSGGGSGTDFTLTISSLQPEDVATYYCQNYNSAPFTFGPGTKVDIKR
modifications: macropa chelator complexing 225Ac, coupled via thiourea to the terminal amino group of a Lysine residue; chelator-to-antibody ratio 0.8; chain and position not stated
B2: Ac-225-DOTA-Pelgifatamab CAR 5.7 (antibody, V domains shown)
VH: B1 VH
VL: B1 VL
modifications: p-SCN-Bn-DOTA chelator complexing 225Ac, coupled to the terminal amino group of Lysine residues; chelator-to-antibody ratio 5.7; chain and positions not stated
B3: Ac-225-DOTA-Pelgifatamab CAR 12.7 (antibody, V domains shown)
VH: B1 VH
VL: B1 VL
modifications: p-SCN-Bn-DOTA chelator complexing 225Ac, coupled to the terminal amino group of Lysine residues; chelator-to-antibody ratio 12.7; chain and positions not stated

molecular target: prostate-specific membrane antigen (PSMA) on prostate cancer cell lines (human, UniProt Q04609 1-750); experiment: cell-based or functional assay
Sequence (Q04609 whole entry): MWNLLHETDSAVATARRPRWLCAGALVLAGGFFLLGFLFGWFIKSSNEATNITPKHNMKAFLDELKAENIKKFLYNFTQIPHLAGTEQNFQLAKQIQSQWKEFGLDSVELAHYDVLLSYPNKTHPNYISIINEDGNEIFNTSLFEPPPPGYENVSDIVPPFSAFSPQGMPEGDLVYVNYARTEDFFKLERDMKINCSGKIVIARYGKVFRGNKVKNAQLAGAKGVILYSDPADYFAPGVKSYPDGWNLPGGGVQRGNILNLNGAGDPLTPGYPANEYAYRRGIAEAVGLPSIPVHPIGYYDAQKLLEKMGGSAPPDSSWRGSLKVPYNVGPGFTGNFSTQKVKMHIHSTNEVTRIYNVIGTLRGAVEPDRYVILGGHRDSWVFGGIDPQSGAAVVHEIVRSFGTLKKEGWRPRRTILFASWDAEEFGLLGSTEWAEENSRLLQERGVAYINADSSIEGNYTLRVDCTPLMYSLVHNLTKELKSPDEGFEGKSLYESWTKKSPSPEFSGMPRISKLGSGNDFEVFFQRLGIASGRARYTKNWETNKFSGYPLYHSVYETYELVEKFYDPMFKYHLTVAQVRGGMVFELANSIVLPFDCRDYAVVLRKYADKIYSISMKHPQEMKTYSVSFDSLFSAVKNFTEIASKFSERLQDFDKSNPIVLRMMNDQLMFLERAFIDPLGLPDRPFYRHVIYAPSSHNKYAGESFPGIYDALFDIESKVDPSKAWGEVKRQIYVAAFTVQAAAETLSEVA

With B1 as the binder, how does the “IC50, in-vitro cytotoxicity (CellTiterGlo), C4-2 cells” value read?
Its value is 0.09 kBq/ml.

And the “IC50, in-vitro cytotoxicity (CellTiterGlo), MDA-PCa-2b cells” value?
Its value is 0.05 kBq/ml.

How did the “IC50, in-vitro cytotoxicity (CellTiterGlo), C4-2 cells” value turn out when B2 was run?
The value was 0.15 kBq/ml.

And the “IC50, in-vitro cytotoxicity (CellTiterGlo), MDA-PCa-2b cells” value?
Its value is 0.09 kBq/ml.

Which results are given for B3?
IC50, in-vitro cytotoxicity (CellTiterGlo), C4-2 cells: 0.29 kBq/ml; IC50, in-vitro cytotoxicity (CellTiterGlo), MDA-PCa-2b cells: 0.2 kBq/ml

Source: patent EP4279092A1 (Bayer AG, dated 2023)
